Measured values reported in patent publication US20100247549A1.
Several values for one entry are separate records, joined by “and”; a condition that tells them apart may be missing. Equal entries are not always repeated.

Molecular target: DENV-4 parental viruses
Assay: cell-based or functional assay

B1: Humanized IgG 5H2 ΔD (IgG1 5H2 with a 9-amino-acid deletion, positions 231-239, at the N-terminus of the CH2 domain) (antibody)
heavy: EVQLLESGPGLVKPSETLSLTCTVSGGSISDFYWSWLRQSPGKGLEWIGYAHSRVSAYYNPSLKSRVTISVDTSKNQLSLRLSAVTAADTALYYCARQGTGTTGVSEDFFDLWGQGTKVIVSLASTKGPSVFPLAPSSKSTSGGTAALGCLVKDYFPEPVTVSWNSGALTSGVHTFPAVLQSSGLYSLSSVVTVPSSSLGTQTYICNVDHKPSNTKVDKKVEPKSCDKTHTCPPCPVFLFPPKPKDTLMISRTPEVTCVVVDVSHEDPEVKFNWYVDGVEVHNAKTKPREEQYNSTYRVVSVLTVLHQDWLNGKEYKCKVSNKALPAPIEKTISKAKGQPREPQVYTLPPSRDELTKNQVSLTCLVKGFYPSDIAVEWESNGQPENNYKTTPPVLDSDGSFFLYSKLTVDKSRWQQGNVFSCSVMHEALHNHYTQKSLSLSPGK
light: not shown
  PRNT50 titer: 0.03 µg/mL and 0.05 µg/mL
